Measurements as given in patent US20030147861A1, “Compounds and methods for the modulation of immune responses” (Genesis Research and Development Corporation Limited, priority 2001, published 2003).
“Also recorded” adds a separate entry of the source.

Legend:
[1] = test system: TLR2, TLR4 and CD14 on THP-1 cells (IL-12p40, TNFα, IL-10 production); test: Cytokine production by THP-1 cells pre-treated with mAbs to TLR2, TLR4 or CD14 and cultured with M. vaccae derivatives (ELISA); assay type: cell-based, human; details: mAb pre-treatment 60 minutes, 0.32-1000 μg/mL; stimulus 5 μg/mL, 24 hours
Procedure: In subsequent experiments, the effect of antibodies to TLR2, TLR4 and CD14 on the production of IL-12p40, IL-10 and TNF-α in THP-1 cells in response to M. vaccae derivatives was examined as follows.
Prior to culture with M. vaccae derivatives, 50 μL of THP-1 cells in cRPMI-10 were pre-treated in duplicate microplate wells with 50 μL of serially diluted Functional Grade mabs to human TLR2 (clone TL2.1, IgG2a isotype, eBioscience cat. no. 16-9922-82), TLR4 (clone HTA125, IgG2a isotype, eBioscience cat. no. 16-9927-82), or CD14 (clone RM052, IgG2a isotype, Coulter cat. no. IM0643), with a cocktail of all three antibodies or with control mAb (clone AcV1, IgG2a isotype, eBioscience cat. no. 16-4724-85), with each mAb used at a final concentration of 1000 μg/mL, 200 μg/mL, 40 μg/mL, 8.0 μg/mL, 1.60 μg/mL, or 0.32 μg/mL, or with no mAb. Pretreatment of cells with mAbs was for 60 minutes in a water-jacketed, humidified incubator at 37° C. supplied with 5% CO2 in air.
At the end of the 24-hour incubation period, the microplates were centrifuged at 200×g for 5 minutes and the supernatants collected and transferred to a sterile 96-well round-bottom plate.
IL-12p40, TNFα, and IL-10 content in the microculture supernatants was determined by sandwich ELISA using commercially available sets according to the manufacturer's recommendations. […]

[2] = test system: IL-1β, TNF-α, IL-12 and IFN-γ production in PBMC; test: Cytokine production in PBMC from normal donors (ELISA); assay type: cell-based, human
[3] = test system: CD40, CD80 and CD86 on dendritic cells; assay type: cell-based, human
[4] = test system: popliteal lymph node cells; test: Proliferation of lymph node cells from GV protein-immunized mice; assay type: cell-based, female BALB/cByJ mice; details: lymph node cells of mice immunized with 10 μg of the same GV protein in IFA
Procedure: (§1) The immunogenicity of Mycobacterium vaccae recombinant proteins (referred to herein as GV recombinant proteins) was tested by injecting female BALB/cByJ mice in each hind foot-pad with 10 μg of recombinant GV proteins emulsified in incomplete Freund's adjuvant (IFA). Control mice received phosphate buffered saline in IFA. The draining popliteal lymph nodes were excised 10 days later and the cells obtained therefrom were stimulated with the immunizing GV protein and assayed for proliferation by measuring the uptake of tritiated thymidine. The amount of interferon gamma (IFNγ) produced and secreted by these cells into the culture supernatants was assayed by standard enzyme-linked immunoassay.

[5] = test system: CD40, CD80 and CD86 on B cells; test: CD40, CD80 and CD86 expression on B cells (3 color flow cytometry); assay type: cell-based, human; details: 20 ug/ml, 48 hours, vs non-stimulated cells
Description: (§2) Stimulated cells were harvested and analyzed for up-regulation of CD40, CD80 and CD86 using 3 color flow cytometric analysis. Tables 16, 17 and 18 show the fold increase in mean fluorescence intensity from control (non-stimulated cells) for dendritic cells, monocytes, and B cells, respectively.

[6] = test system: CD69 on αβT cells, γδT cells and NK cells; assay type: cell-based, human
[7] = test system: dendritic cells with allogeneic T cells; test: Dendritic cell mixed lymphocyte reaction (MLR) assay; assay type: cell-based; details: 20 μg/ml for 18-20 hours, then allogeneic T cells
Procedure: The ability of GV-23 to enhance dendritic cell function as antigen presenting cells was determined by mixed lymphocyte reaction (MLR) assay. Purified dendritic cells were cultured in medium alone or with GV-23 (20 μg/ml) for 18-20 hours and then stimulated with allogeneic T cells (2×10^5 cells/well). After 3 days of incubation, (^3H)-thymidine was added. Cells were harvested 1 day later and the uptake of radioactivity was measured.

[8] = test system: CD40, CD80 and CD86 on monocytes; test: CD40, CD80 and CD86 expression on monocytes (3 color flow cytometry); assay type: cell-based, human; details: 20 ug/ml, 48 hours, vs non-stimulated cells
Description: as §2

[9] = test system: CD83 and CD80 on purified dendritic cells; test: Dendritic cell maturation: CD83 and CD80 expression (flow cytometry); assay type: cell-based; details: GV-23 20 μg/ml or LPS 10 μg/ml, 20 hour, mean ± SD (n = 3)
Procedure: The effect of the recombinant M. vaccae protein GV-23 on the maturation and function of dendritic cells was examined as follows.
Purified dendritic cells (5×10^4−10^5 cells/ml) were stimulated with GV-23 (20 μg/ml) or LPS (10 μg/ml) as a positive control. Cells were cultured for 20 hour and then analyzed for CD83 (a maturation marker) and CD80 expression by flow cytometry. Non-stimulated cells were used as a negative control.

[10] = test system: IFNγ production by lymph node cells; test: IFNγ production by lymph node cells from GV protein-immunized mice (enzyme-linked immunoassay); assay type: cell-based, female BALB/cByJ mice; details: lymph node cells of mice immunized with the same GV protein
Procedure: as §1

[11] = dendritic cells, 20 ug/ml, 48 hours, vs non-stimulated cells
[12] = Dose of GV protein used in vitro 2 μg/ml
[13] = Dose of GV protein used in vitro 50 μg/ml

Question: With “TLR2 mAb: Functional Grade mAb to human TLR2, clone TL2.1, IgG2a isotype (eBioscience) [reference compound]” as the molecule, how does the “inhibition of M. vaccae-, AVAC- and DD-M. vaccae-induced production of IL-12p40 by THP-1 cells” value [1] read?
Answer: Its value is “inhibited by TLR2 and CD14 mAbs in a dose-dependent fashion”.

B1: GV-23: recombinant M. vaccae antigen, amino acid sequence SEQ ID NO: 38 (protein, listed as Mycobacterium vaccae)
chain: VIEIDHVTKRFGDYLAVADADFSIAPGEFFSMLGPSGCGKTTTLRMIAGFETPTEGAIRLEGADVSRTPPNKRNVNTVFQHYALFPHMTVWDNVAYGPRSKKLGKGEVRKRVDELLEIVRLTEFAERRPAQLSGGQQQRVALARALVNYPSALLLDEPLGALDLKLRHVMQFELKRIQREVGITFIYVTHDQEEALTMSDRIAVMNAGNVEQIGSPTEIYDRPATVFVASFIGQANLWAGRCTGRSNRDYVEIDVLGSTLKARPGETTIEPGGHATLMVRPERIRVTPGSQDAPTGDVACVRATVTDLTFQGPVVRLSLAAPDDSTVIAHVGPEQDLPLLRPGDDVYVSWAPEASLVLPGDDIPTTEDLEEMLDDS
Question: With B1 as the molecule, how does the “production of IL-1β, TNF-α, IL-12 and IFN-γ by PBMC” value [2] read?
Answer: The value was “stimulate the production of IL-1β, TNF-α and IL-12; also recorded: induced significant levels of the four cytokines examined”.

Question: What about the “IL-1β production by PBMC relative to known adjuvants” value ([2]; GV-23 20 μg/ml) of the same molecule?
Answer: The value was “higher levels of IL-1β production being seen with GV-23 than with any of the known adjuvants”.

Question: What about the “CD40, CD80 and CD86 expression in dendritic cells, comparison with adjuvants” value [3] of the same molecule?
Answer: Its value is “significant up-regulation of CD40, CD80 and CD86”.

Question: And the “CD40, CD80 and CD86 expression on dendritic cells” value ([3]; 20 ug/ml, 48 hours, T cell-depleted PBMC)?
Answer: Its value is “highest levels of expression”.

Question: What about the “CD40 expression, fold increase in mean fluorescence intensity from control” value (“CD40 expression, fold increase” below) [3, 11] of the same molecule?
Answer: Its value is 6.0 fold.

Question: What about the “CD80 expression, fold increase in mean fluorescence intensity from control” value (from here on “CD80 expression, fold increase”) [3, 11] of the same molecule?
Answer: The value was 4.5 fold.

Question: And the “CD86 expression, fold increase in mean fluorescence intensity from control” value (shortened to “CD86 expression, fold increase”) [3, 11]?
Answer: The value was 1.8 fold.

Question: What about the “Proliferation (cpm)” value ([4]; Dose of GV protein used in vitro 0.08 μg/ml) of the same molecule?
Answer: The value was 7,393 ± 2,188 cpm.

Question: And the “Proliferation (cpm)” value [4, 12]?
Answer: Its value is 15,423 ± 2,858 cpm.

Question: And the “Proliferation (cpm)” value [4, 13]?
Answer: The value was 35,598 ± 1,330 cpm.

Question: And the “CD40 expression, fold increase” value [5]?
Answer: The value was 1.2 fold.

Question: What about the “CD80 expression, fold increase” value [5] of the same molecule?
Answer: The value was 1.1 fold.

Question: And the “CD86 expression, fold increase” value [5]?
Answer: The value was 1.4 fold.

Question: What about the “CD69 expression on NK cells, comparison with adjuvants” value [6] of the same molecule?
Answer: The value was “induced CD69 expression on NK cells”.

Question: What about the “percentage of αβT cells expressing CD69” value ([6]; PBMC from normal donors, 20 ug/ml, 24 hours, control 3.8) of the same molecule?
Answer: Its value is 5.8%.

Question: And the “percentage of NK cells expressing CD69” value ([6]; PBMC from normal donors, 20 ug/ml, 24 hours, control 4.8)?
Answer: Its value is 46.8%.

Question: What about the “percentage of γδT cells expressing CD69” value ([6]; PBMC from normal donors, 20 ug/ml, 24 hours, control 6.2) of the same molecule?
Answer: Its value is 10.0%.

Question: What about the “dendritic cell mixed lymphocyte reaction ((3H)-thymidine uptake)” value [7] of the same molecule?
Answer: The value was “enhances dendritic cell mixed lymphocyte reaction”.

Question: What about the “CD40 expression, fold increase” value [8] of the same molecule?
Answer: The value was 2.3 fold.

Question: And the “CD80 expression, fold increase” value [8]?
Answer: Its value is 1.5 fold.

Question: And the “CD86 expression, fold increase” value [8]?
Answer: Its value is 0.7 fold.

Question: What about the “% CD80-positive dendritic cells” value ([9]; control 9 ± 6.6) of the same molecule?
Answer: Its value is 24.7 ± 14.2%.

Question: What about the “% CD83-positive dendritic cells” value ([9]; control 15 ± 8) of the same molecule?
Answer: The value was 35 ± 13.2%.

Question: And the “IFNγ” value [10, 12]?
Answer: Its value is 9.17 ± 1.51 ng/mL.

Question: What about the “IFNγ” value ([10]; Dose of GV protein used in vitro 10 μg/ml) of the same molecule?
Answer: The value was 30.70 ± 4.48 ng/mL.

Question: And the “IFNγ” value [10, 13]?
Answer: Its value is 59.67 ± 14.88 ng/mL.
